The record followed here is the Immune Epitope Database (IEDB).

Assay [1] has as its target HLA-A*02:01. In words: IEDB peptide-MHC binding, purified MHC/competitive/radioactivity; filed as Kd, often an IC50 or EC50 that approximates it; ≥ and ≤ were set here for values at or beyond the usual limits of such assays.
Assay [2] deals with HLA-A*02:03. The assay is described as above.
The target in assay [3] is HLA-A*02:06. The description is as above.
Assay [4] addresses HLA-A*02:17. The assay is described as above.
For assay [5], the target named is HLA-A*02:02. The description is as above.
Assay [6] deals with HLA-A*68:02. The description is as above.
In assay [7] the target is HLA-A*69:01. Put plainly: IEDB peptide-MHC binding, purified MHC/direct/fluorescence; filed as Kd, often an IC50 or EC50 that approximates it; ≥ and ≤ were set here for values at or beyond the usual limits of such assays.
Assay [8] deals with HLA-B*07:02. The description is as above.
Assay [9] concerns the target HLA-B*08:01. The description is as above.
The target of assay [10] is HLA-B*08:02. The assay is described as above.
Assay [11] has as its target HLA-A*01:01. Described as above. The following applies: source organism: Vibrio parahaemolyticus.
Assay [12] deals with HLA-A*02:01. Described as above. To be noted: source organism: Vibrio parahaemolyticus.
Assay [13] addresses HLA-A*03:01. The description is as above. To be noted: source organism: Vibrio parahaemolyticus.
For assay [14], the target named is HLA-A*11:01. The description is as above. The following applies: source organism: Vibrio parahaemolyticus.
Assay [15] deals with HLA-A*24:03. Described as above. To be noted: source organism: Vibrio vulnificus.
In assay [16] the target is HLA-A*26:01. The description is as above. To be noted: source organism: Vibrio parahaemolyticus.
Assay [17] deals with HLA-A*31:01. The assay is described as above. The following applies: source organism: Vibrio parahaemolyticus.
Assay [18] has as its target HLA-B*15:01. The description is as above. To be noted: source organism: Vibrio vulnificus.
The target in assay [19] is HLA-B*27:05. The assay is described as above. The following applies: source organism: Vibrio parahaemolyticus.
In assay [20] the target is HLA-B*40:01. The description is as above. The following applies: source organism: Vibrio parahaemolyticus.
In assay [21] the target is HLA-B*44:02. The assay is described as above. To be noted: source organism: Vibrio parahaemolyticus.
The target in assay [22] is HLA-B*58:01. The description is as above. The following applies: source organism: Vibrio parahaemolyticus.
For assay [23], the target named is HLA-A*02:01. Put plainly: IEDB peptide-MHC binding, purified MHC/competitive/fluorescence; filed as Kd, often an IC50 or EC50 that approximates it; ≥ and ≤ were set here for values at or beyond the usual limits of such assays. The following applies: source organism: Orthonairovirus haemorrhagiae.
In assay [24] the target is HLA-A*32:01. Put plainly: IEDB peptide-MHC binding, purified MHC/competitive/radioactivity; filed as Kd, often an IC50 or EC50 that approximates it; ≥ and ≤ were set here for values at or beyond the usual limits of such assays. To be noted: source organism: Dengue virus 3 Singapore/8120/1995.
The target in assay [25] is HLA-B*35:01. The assay is described as above. The following applies: source organism: Dengue virus 3 Singapore/8120/1995.
Assay [26] concerns the target HLA-B*08:01. The assay is described as above.
The target in assay [27] is HLA-B*15:01. The description is as above. The following applies: source organism: Dengue virus 3 Sri Lanka/1266/2000.
In assay [28] the target is HLA-B*15:01. Put plainly: IEDB peptide-MHC binding, purified MHC/competitive/fluorescence; filed as Kd, often an IC50 or EC50 that approximates it; ≥ and ≤ were set here for values at or beyond the usual limits of such assays. The following applies: source organism: Human herpesvirus 5 strain Towne.
Assay [29] has as its target HLA-B*18:01. The description is as above. To be noted: source organism: Human herpesvirus 5 strain Towne.
In assay [30] the target is HLA-B*39:01. The assay is described as above. To be noted: source organism: Human herpesvirus 5 strain Towne.
The target in assay [31] is HLA-B*51:01. The assay is described as above. To be noted: source organism: Human herpesvirus 5 strain Towne.
For assay [32], the target named is HLA-B*57:01. The description is as above. To be noted: source organism: Human herpesvirus 5 strain Towne.
The target in assay [33] is HLA-A*01:01. In words: IEDB peptide-MHC binding, purified MHC/competitive/radioactivity; filed as Kd, often an IC50 or EC50 that approximates it; ≥ and ≤ were set here for values at or beyond the usual limits of such assays. To be noted: source organism: Dengue virus 1 Brazil/97-11/1997.
[34] abbreviates: source organism: Dengue virus 3 China/80-2/1980.
The mark [35] stands for this setting: source organism: Dengue virus 3 Martinique/1243/1999.
The mark [36] stands for this setting: source organism: Dengue virus 3 Sri Lanka/1266/2000.
[37] abbreviates: source organism: Dengue virus 2 Jamaica/1409/1983.
Setting [38] is: source organism: Dengue virus 1 Singapore/S275/1990.
The mark [39] stands for this setting: source organism: Mycobacterium tuberculosis str. Haarlem.
Where [40] appears, read: source organism: Vibrio vulnificus.
[41] abbreviates: source organism: Orthonairovirus haemorrhagiae.
Setting [42] is: source organism: Dengue virus 1 Brazil/97-11/1997.
Where [43] appears, read: source organism: Mycobacterium tuberculosis C.
The mark [44] stands for this setting: source organism: Trypanosoma cruzi.
Setting [45] is: source organism: Dengue virus 4 Philippines/H241/1956.

The term Kd denotes the concentration at which binding is half-saturated. As for WMTTEDMLTV, the Kd in assay [1] (setting [34]) is 13.6 nM; in assay [2] (setting [35]), 37.5 nM; in assay [3] (setting [35]) it was 8.59 nM; in assay [4] (setting [34]) it was 2240 nM.

Consider FAGKTVWFV, for which the Kd in [3] (setting [35]) turned out to be 39.5 nM; in assay [4] (setting [36]) it was 293 nM.

For the sequence LLLLVAHYAI, the Kd is 97.8 nM in assay [1] (setting [37]), 53.4 nM in assay [3] (setting [37]) and 434 nM in [4] (setting [37]).

Turning to ELADKVTKL, the Kd in [1] (source organism: Homo sapiens) is 2510 nM; in assay [5] (source organism: Homo sapiens) it was 33.2 nM; in [2] (source organism: Homo sapiens), 114 nM; in assay [3] (source organism: Homo sapiens), at least 38800 nM; in assay [6] (source organism: Homo sapiens), 3.18 nM.

For DLMCHATFTM, the dissociation constant (Kd) is 209 nM in assay [1] (setting [37]) and at least 70400 nM in assay [4] (setting [37]).

On to VLLKTALLIV, for which the Kd in [2] (setting [35]) is 40.1 nM; in assay [3] (setting [35]), 37 nM; in assay [4] (setting [34]) it was 2490 nM.

For the sequence KTMAMVLSIV, the Kd in assay [1] (setting [38]) was 26.4 nM; in [2] (setting [38]), 1.18 nM; in [3] (setting [38]), 1.96 nM; in assay [4] (setting [38]) it was 2860 nM; in assay [6] (setting [38]) it was 52.5 nM.

With FMMVLLIPEP, the Kd in assay [1] (setting [34]) was 93.1 nM; in assay [3] (setting [35]), 124 nM; in assay [4] (setting [34]) it was 5730 nM.

In the case of LPAQLTATA, the equilibrium dissociation constant (Kd) in assay [7] (source organism: Mycobacterium tuberculosis) was 184 nM; in assay [8] (setting [39]), 441 nM; in [9] (setting [39]) it was at least 20000 nM; in assay [10] (setting [39]), at least 20000 nM.

As for ILLRKGHVF, the Kd in assay [11] is at least 20000 nM; in assay [12], at least 20000 nM; in [13], at least 20000 nM; in assay [14] it was at least 20000 nM; in [15], 4280 nM; in assay [16], at least 20000 nM. The dissociation constant Kd in [17] is at least 20000 nM; in assay [7] (source organism: Vibrio parahaemolyticus), at least 20000 nM; in assay [8] (setting [40]) it was 10000 nM; in assay [9] (setting [40]) it was 107 nM; in assay [18], 115 nM; in assay [19], at least 20000 nM. The Kd in assay [20], in assay [21] and in assay [22] was at least 20000 nM throughout.

As for LMMMLPATLA, the figures for the Kd in assay [1] (setting [34]), in assay [2] (setting [34]) and in assay [4] (setting [34]) were 13.5 nM, 17.5 nM and 2880 nM, respectively.

Take MIRRRNQIL: the Kd is 3 nM in assay [9] (setting [41]), 843 nM in [10] (setting [41]) and at least 20000 nM in assay [23].

MLWMADVPL: the Kd in assay [1] (setting [34]) came out at 1.16 nM; in assay [4] (setting [34]), 2.72 nM; in [24], 29.1 nM; in assay [25], 658 nM.

In the case of LMMILPAAL, the Kd in assay [2] (setting [36]) was found to be 15.3 nM; in assay [4] (setting [36]), 78.4 nM; in assay [26] (setting [36]), 18.1 nM; in assay [27], 13.6 nM.

Turning to YSKVKLLGL, the results for the dissociation constant Kd in assay [9] (source organism: Orthohantavirus dobravaense) and in assay [10] (source organism: Kurkino virus) were 52.5 nM and 512 nM, respectively.

In the case of LPLKMLNIPSINVH, the Kd in [28], in assay [29], in assay [30], in assay [31] and in assay [32] was at least 20000 nM each time.

With LTAAVLMLV, the Kd in assay [33] is 17700 nM; in [1] (setting [38]), 1.14 nM; in [2] (setting [42]) it was 11.8 nM; in [3] (setting [42]) it was 10.6 nM; in [4] (setting [38]) it was 561 nM; in [6] (setting [42]) it was 11.3 nM.

Consider QLIPCMDVV, for which the Kd in assay [1] (source organism: Triticum aestivum) is 147 nM.

For the sequence ALYGSVPVL, the Kd in assay [1] (source organism: Homo sapiens) turned out to be 8.1 nM.

Take GLLTVCYVL: the Kd in assay [4] (setting [37]) turned out to be 802 nM.

For GLDVLTAKV, the dissociation constant Kd in [1] (source organism: Homo sapiens) came out at 132 nM.

Turning to KLVMAFIAFL, the Kd in assay [1] (setting [38]) is 28.9 nM; in [3] (setting [42]), 11.5 nM; in assay [4] (setting [38]), 22.4 nM.

For YLRRRQKAL, the results for the Kd in assay [9] (setting [43]) and in assay [10] (setting [43]) were 10 nM and 1310 nM, respectively.

Regarding TLLLLGLMIL, the Kd in assay [4] (setting [34]) is 2420 nM; in assay [26] (setting [35]), 890 nM.

As for EMIQLQEEL, the figures for the Kd in assay [1] (source organism: Homo sapiens) and in assay [5] (source organism: Homo sapiens) were 3100 nM and 123 nM, respectively.

With LLLLVAHYA, the Kd in [1] (setting [37]) was 51.9 nM; in assay [4] (setting [37]), 7930 nM.

For DTMRPTTVV, the Kd in assay [1] (setting [44]) was at least 83300 nM; in assay [5] (setting [44]), at least 28900 nM; in [2] (setting [44]), 4630 nM; in assay [3] (setting [44]) it was 3040 nM; in assay [6] (setting [44]), 1.38 nM.

As for LLAGFMAYMI, the Kd in assay [1] (setting [45]) was 7.04 nM; in assay [4] (setting [45]), 45.7 nM.
